Source: patent US9045559B2, “Method for screening inhibitors of interleukin-32 (IL-32)” (Yeda Research and Development Co. Ltd, priority 2005, dated 2015)
“Also recorded” adds a separate entry of the source. No end group written: not given here.

Tests used:
PR-3 = molecular target: T1, PR-3 (Homo sapiens, UniProt P24158); details: cited from earlier work; for kI for PR-3: Kam, 1992
T1 sequence (P24158 28-248): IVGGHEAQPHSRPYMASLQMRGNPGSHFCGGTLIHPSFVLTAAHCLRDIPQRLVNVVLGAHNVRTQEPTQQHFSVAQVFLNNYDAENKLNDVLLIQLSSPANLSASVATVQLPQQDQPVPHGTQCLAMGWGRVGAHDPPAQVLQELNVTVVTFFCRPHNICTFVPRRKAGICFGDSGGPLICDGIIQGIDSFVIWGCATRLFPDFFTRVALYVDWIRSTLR

IL-32 responsive cells = experiment: Biological activity of IL-32 and its proteolytic fragments (summary statement referring to Example 8); assay type: cell-based; details: fragments generated by PR-3 cleavage
Source text: The cleavage of IL-32 and the consequent enhancement of the biological activity were both blocked by the action of PMSF.
For the purpose of the present description the expression “biological activity of IL-32” refers inter alia to at least one of the following biological properties:
(i) induction of MIP-2, (ii) induction of TNF, and (iii) induction of IL-8.

^125I-IL-32 = molecular target: T2, ^125I-IL-32 (Homo sapiens, UniProt P24001); experiment: Kinetics of degradation of 125I-IL-32 by urinary and commercial PR-3 (SDS-PAGE, autoradiography); assay type: biochemical
T2 construct: made in house; host or cells: E. coli (IL-32α)
T2 sequence (P24001 1-131 isoform P24001-4): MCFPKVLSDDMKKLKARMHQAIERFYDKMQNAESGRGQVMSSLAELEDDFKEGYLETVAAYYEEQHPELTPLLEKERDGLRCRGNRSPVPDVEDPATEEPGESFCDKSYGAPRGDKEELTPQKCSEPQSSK
T2 sequence (P24158 28-248 partner limits assumed): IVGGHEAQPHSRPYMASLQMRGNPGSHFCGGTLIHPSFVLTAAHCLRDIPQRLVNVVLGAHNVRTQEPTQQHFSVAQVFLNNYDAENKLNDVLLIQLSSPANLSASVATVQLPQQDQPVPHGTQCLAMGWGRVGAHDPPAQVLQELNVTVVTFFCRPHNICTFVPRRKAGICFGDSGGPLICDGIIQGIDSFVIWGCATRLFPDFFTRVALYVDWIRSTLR
Description: After 1 minute of incubation with PR-3 the 20 kDa IL-32 (Lane 1) was cleaved into two cleavage products of 16 and 13 kDa (Lane 2). After 5 min. (Lane 3) the band corresponding to the intact IL-32 disappeared and the cleavage products remained stable for at least 60 min. (lanes 3, 4, 6, and 7). The resulting ^125I-IL-32 fragments of apparent MW of 20 kDa, 16 kDa and 13 kDa are indicated on the left side of the FIG.
The experiment was carried out essentially as indicated in FIG. 4 (Example 5) except, that incubation of PR-3 and IL32 was limited to up to 5 minutes and that both urinary and commercial PR-3 were used. Urinary (Lines 1-3) or commercial PR-3 (Lines 5-7) were incubated with ^125I-IL-32 for 0, 1 and 5 minutes.
Affinity purified urinary PR-3 (elution 3 fraction from Example 1, FIG. 1, 50 μl) was added to ^125I-IL-32 (250,000 cpm in 10 μl of gelatin solution) and incubated at 37° C. for 0, 1, 5, 15, 30, and 60 min. (FIG. 4). Degradation was stopped by the addition of SDS-PAGE sample buffer and by boiling for 10 min. Samples containing ^125I-IL-32 and PR-3 incubated at different periods of time (0-60 min.) were resolved on 12% SDS-PAGE under reducing conditions. The gel was dried and autoradiographed. The results summarized on FIG. 4 show the reduction in the 20 kDa band representing intact IL-32 (FIG. 4, lane 1) and the increase in the levels of a 16 and 13 kDa IL-32 cleavage products after a 1-minute incubation with PR-3 (FIG. 4, lane 2).
Urinary PR-3 or commercial PR-3 (Athens Research and Technology) were incubated with ^125I-IL-32 for 0, 1 and 5 min. Digestion was stopped by the addition of SDS-PAGE sample buffer and by boiling for 10 min. The samples were resolved on SDS-PAGE under reducing conditions. The gel was dried and autoradiographed. […] This difference is probably due to a different specific activity of urinary vs. commercial PR3.

[1] = test system: human peripheral blood mononuclear cells (PBMC); experiment: IL-8 secretion by human PBMC stimulated with IL-32 or PR-3-pretreated IL-32; assay type: cell-based; details: IL-32 20 or 200 ng/ml; PR-3 100 ng/ml, 5 min pretreatment
Description: Human PBMC cells were seeded in 96 well plates and incubated with IL-32 (20 or 200 ng/ml), IL-32 pretreated with PR-3 (100 ng/ml) for 5 min. or with PR-3 alone as the a control. The content of IL-8 into the cell culture medium was measured.
Similar enhancement of IL-32 activity by pre-treatment with PR-3 was shown in an experiment carried out with human peripheral blood mononuclear cells (PBMC). PBMC were prepared as previously described [Kim, 2005 #36] and seeded at a concentration of 5×10^5 cells per well in 96 well plates. The experimental setting of stimulation with IL-32 and IL-32 pre treated with PR-3 was identical to that described above for the mouse Raw cells. After stimulation of the human PBMC cells with either IL-32 or IL-32 pre treated with PR-3, the culture supernatants were collected to measure human IL-8 released by the cells.

Raw 264.7 cells = experiment: MIP-2 secretion by mouse macrophage Raw 264.7 cells stimulated with IL-32 or PR-3-pretreated IL-32; assay type: cell-based; details: IL-32 20 or 200 ng/ml; PR-3 100 ng/ml, 5 min pretreatment; 16-20 h; polymyxin B 5 μg/ml
Description: Mouse macrophage Raw 264.7 cell line were seeded in a 96 well plate and incubated with IL-32 (20 or 200 ng/ml), IL-32 pretreated with PR-3 (100 ng/ml) for 5 min. or with PR-3 alone as the a control, and MIP-2 secreted into the cell culture medium was measured. […] PR-3 alone had no effect on the cells.
Mouse macrophage Raw 264.7 cell line (American Type Culture Collection, ATCC) was maintained in RP MI-1640 medium containing 10% FCS. Bioassays were performed in 96 well plates. Briefly, Raw cells (5×10^5/ml, 0.1 ml/per well) were seeded and cultured until cells adhered to the plate. The medium was removed and the cells were then stimulated with fresh medium (without FCS) containing different concentration of IL-32 or IL-32 pre-treated with PR-3 for 5 min at room temperature in the presence 5 μg/ml of the LPS blocker polymyxin B (Bedford Laboratories, Bedford, Ohio). The plates were incubated at 37° C. with 5% CO2 for 16-20 h and then the culture supernatants were collected to measure MIP-2 released by the cell culture.

## Nc1ccc2c(Cl)c(OCCBr)oc(=O)c2c1 [7-amino-4-chloro-3-(2-bromoethoxy) isocoumarin]
PR-3
  kI for PR-3: 4700 M⁻¹ s⁻¹

## O=c1oc(Cl)c(Cl)c2ccccc12 [3,4-dichloroisocoumarin]
PR-3
  kI for PR-3: 2600 M⁻¹ s⁻¹

## MCFPKVLSDDMKKLKARMHQAIERFYDKMQNAESGRGQVMSSLAELEDDFKEGYLET (listed as Homo sapiens) [13 kDa (SEQ ID NO: 1), supposed N-terminal fragment of IL-32 generated by PR-3]
IL-32 responsive cells
  biological activity compared to the intact IL-32 protein: enhanced biological activity

## Cc1ccc(C(=O)Nc2ccc(S(=O)(=O)O)c3cc(S(=O)(=O)O)cc(S(=O)(=O)O)c23)cc1NC(=O)c1cccc(NC(=O)Nc2cccc(C(=O)Nc3cc(C(=O)Nc4ccc(S(=O)(=O)O)c5cc(S(=O)(=O)O)cc(S(=O)(=O)O)c45)ccc3C)c2)c1 [Suramin]
PR-3; Cadene, 1997
  Ki: 500 nM

## Elafin: a human skin derived peptide that inhibits human leukocyte elastase (AQEPVKGPVSTKPGSCPIILIRCAMLNPPNRCLKDTDCPGIKKCCEGSCGMACFVPQ; ends and bridges not checked; cysteine pairing not given here; UniProt P19957 61-117, looked up)
PR-3; Wiedow, 1991, Zani, 2004
  IC50: 9.5 nM
PR-3; inhibition of PR-3
  potency compared with antileukoprotease and eglin C: more than 100 fold

B1: urinary PR-3: human Proteinase-3 (28-32 kDa) affinity purified from human urine on an IL-32 column, elution fraction 3 (protein)
chain: IVGGHEAQPHSRPYMASLQMRGNPGSHFCGGTLIHPSFVLTAAHCLRDIPQRLVNVVLGAHNVRTQEPTQQHFSVAQVFLNNYDAENKLNDVLLIQLSSPANLSASVATVQLPQQDQPVPHGTQCLAMGWGRVGAHDPPAQVLQELNVTVVTFFCRPHNICTFVPRRKAGICFGDSGGPLICDGIIQGIDSFVIWGCATRLFPDFFTRVALYVDWIRSTLR
^125I-IL-32; 37° C., cleaved into 16 and 13 kDa fragments
  incubation time to complete disappearance of the 20 kDa intact IL-32 band: 5 min

B2: commercial PR-3: commercially available human neutrophil derived PR-3 (Athens Research and Technology) (protein)
chain: IVGGHEAQPHSRPYMASLQMRGNPGSHFCGGTLIHPSFVLTAAHCLRDIPQRLVNVVLGAHNVRTQEPTQQHFSVAQVFLNNYDAENKLNDVLLIQLSSPANLSASVATVQLPQQDQPVPHGTQCLAMGWGRVGAHDPPAQVLQELNVTVVTFFCRPHNICTFVPRRKAGICFGDSGGPLICDGIIQGIDSFVIWGCATRLFPDFFTRVALYVDWIRSTLR
^125I-IL-32; incubation 0, 1 and 5 min
  potency of IL-32 cleavage, commercial vs urinary PR-3: more potent than the urinary PR-3; also recorded: more efficient than the urine-derived PR-3

B3: MNEI: a 42 kDa serpin superfamily member (protein, UniProt P30740 1-379, looked up)
Leukocyte elastase inhibitor: MEQLSSANTRFALDLFLALSENNPAGNIFISPFSISSAMAMVFLGTRGNTAAQLSKTFHFNTVEEVHSRFQSLNADINKRGASYILKLANRLYGEKTYNFLPEFLVSTQKTYGADLASVDFQHASEDARKTINQWVKGQTEGKIPELLASGMVDNMTKLVLVNAIYFKGNWKDKFMKEATTNAPFRLNKKDRKTVKMMYQKKKFAYGYIEDLKCRVLELPYQGEELSMVILLPDDIEDESTGLKKIEEQLTLEKLHEWTKPENLDFIEVNVSLPRFKLEESYTLNSDLARLGVQDLFNSSKADLSGMSGARDIFISKIVHKSFVEVNEEGTEAAAATAGIATFCMLMPEENFTADHPFLFFIRHNSSGSILFLGRFSSP
PR-3; Cooley, 2001
  rate of PR-3 inhibition: > 10^7 M^−1·s^−1

B4: PR-3: granule serine protease, source (urinary or commercial) not stated at these places (protein)
chain: AEIVGGHEAQPHSRPYMASLQMRGNPGSHFCGGTLIHPSFVLTAAHCLRDIPQRLVNVVLGAHNVRTQEPTQQHFSVAQVFLNNYDAENKLNDVLLIQLSSPANLSASVATVQLPQQDQPVPHGTQCLAMGWGRVGAHDPPAQVLQELNVTVVTFFCRPHNICTFVPRRKAGICFGDSGGPLICDGIIQGIDSFVIWGCATRLFPDFFTRVALYVDWIRSTLRRVEAKGRP
[1]
  IL-8 secreted into the cell culture medium: did not induce IL-8
^125I-IL-32; overnight at 4° C., no product higher than the 10 kDa marker
  digestion of IL-32 after overnight incubation with PR-3: complete digestion
Raw 264.7 cells
  MIP-2 secreted into the cell culture medium: no effect

B5: IL-32: recombinant human IL-32α produced in E. coli, about 20 kDa (protein)
chain: MCFPKVLSDDMKKLKARMHQAIERFYDKMQNAESGRGQVMSSLAELEDDFKEGYLETVAAYYEEQHPELTPLLEKERDGLRCRGNRSPVPDVEDPATEEPGESFCDKSYGAPRGDKEELTPQKCSEPQSSK
[1]
  IL-8 secreted into the cell culture medium: induced the secretion of IL-8
Raw 264.7 cells
  MIP-2 secreted into the cell culture medium: induced the secretion of MIP-2

B6: VAAYYEEQHPELTPLLEKERDGLRCRGNRSPVPDVEDPATEEPGESFCDKSYGAPR GDKEELTPQKCSEPQSSK (protein, listed as Homo sapiens)
chain: VAAYYEEQHPELTPLLEKERDGLRCRGNRSPVPDVEDPATEEPGESFCDKSYGAPRGDKEELTPQKCSEPQSSK
notes: C-terminal fragment of IL-32 generated by PR-3
IL-32 responsive cells
  biological activity compared to the intact IL-32 protein: enhanced biological activity
